Measured values from PMC9482650, “Quantitative fragmentomics allow affinity mapping of interactomes” (Nature Communications, 2022).

B1: FZD2, Q14332 (peptide)
chain: TNSRHGETTV
B2: NCF1, P14598 (peptide)
chain: STKRKLASAV

biological target: AHNAK1, Q09666; test: holdup assay; design: key: below the threshold = too weak to quantify, mostly under pKd 3.1 to 4; conditions: plain residues with an end cap or a label only (N-terminal biotin on a linker: ado-ado)
Sequence (Q09666 4-100): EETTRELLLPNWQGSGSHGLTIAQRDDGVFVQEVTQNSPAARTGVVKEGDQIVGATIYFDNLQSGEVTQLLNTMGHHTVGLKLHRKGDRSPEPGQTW

Binder	pKd
B1	below the threshold
B2	below the threshold

biological target: T1, DFNB31_3, Q9P202; test: holdup assay; design: key: below the threshold = too weak to quantify, mostly under pKd 3.1 to 4; conditions: plain residues with an end cap or a label only (N-terminal biotin on a linker: ado-ado)
T1 sequence (Q9P202 811-907, limits assumed, looked up): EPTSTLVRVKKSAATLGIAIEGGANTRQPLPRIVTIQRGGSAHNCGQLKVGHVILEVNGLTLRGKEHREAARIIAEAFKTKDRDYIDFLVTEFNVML

Binder	pKd
B1	below the threshold
B2	3.85

biological target: T2, DLG3_2, Q92796; test: holdup assay; design: key: below the threshold = too weak to quantify, mostly under pKd 3.1 to 4; conditions: plain residues with an end cap or a label only (N-terminal biotin on a linker: ado-ado)
T2 sequence (Q92796 221-321, limits assumed, looked up): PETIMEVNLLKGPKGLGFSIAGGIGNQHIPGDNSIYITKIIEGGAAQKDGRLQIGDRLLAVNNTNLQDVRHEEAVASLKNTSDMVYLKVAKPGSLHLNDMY

Binder	pKd
B1	4.72
B2	4.45

biological target: T3, DVL3, Q92997; test: holdup assay; design: key: below the threshold = too weak to quantify, mostly under pKd 3.1 to 4; conditions: plain residues with an end cap or a label only (N-terminal biotin on a linker: ado-ado)
T3 sequence (Q92997 244-331, limits assumed, looked up): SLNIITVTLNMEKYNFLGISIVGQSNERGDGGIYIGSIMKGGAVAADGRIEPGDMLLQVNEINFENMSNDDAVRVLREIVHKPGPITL

Binder	pKd
B1	below the threshold
B2	below the threshold

biological target: FRMPD2_3, Q68DX3; test: holdup assay; design: key: below the threshold = too weak to quantify, mostly under pKd 3.1 to 4; conditions: plain residues with an end cap or a label only (N-terminal biotin on a linker: ado-ado)
Sequence (Q68DX3 1073-1166): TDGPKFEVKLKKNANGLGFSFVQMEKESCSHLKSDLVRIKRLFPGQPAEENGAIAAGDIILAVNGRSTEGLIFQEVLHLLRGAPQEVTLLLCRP

Binder	pKd
B1	3.62
B2	below the threshold

biological target: FRMPD4, Q14CM0; test: holdup assay; design: key: below the threshold = too weak to quantify, mostly under pKd 3.1 to 4; conditions: plain residues with an end cap or a label only (N-terminal biotin on a linker: ado-ado)
Sequence (Q14CM0 67-160): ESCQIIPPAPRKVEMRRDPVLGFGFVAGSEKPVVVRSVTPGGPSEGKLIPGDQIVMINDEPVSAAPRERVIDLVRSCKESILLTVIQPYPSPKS

Binder	pKd
B1	below the threshold
B2	below the threshold

biological target: GORASP1, Q9BQQ3; test: holdup assay; design: key: below the threshold = too weak to quantify, mostly under pKd 3.1 to 4; conditions: plain residues with an end cap or a label only (N-terminal biotin on a linker: ado-ado)
Sequence (Q9BQQ3 1-208): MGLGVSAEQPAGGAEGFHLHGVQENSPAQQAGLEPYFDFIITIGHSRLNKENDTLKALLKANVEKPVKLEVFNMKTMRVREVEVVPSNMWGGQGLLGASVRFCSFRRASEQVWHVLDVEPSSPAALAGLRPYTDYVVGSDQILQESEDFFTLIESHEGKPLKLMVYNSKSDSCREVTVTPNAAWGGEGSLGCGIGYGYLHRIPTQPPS

Binder	pKd
B1	3.88
B2	below the threshold

biological target: GORASP2, Q9H8Y8; test: holdup assay; design: key: below the threshold = too weak to quantify, mostly under pKd 3.1 to 4; conditions: plain residues with an end cap or a label only (N-terminal biotin on a linker: ado-ado)

Binder	pKd
B1	4.19
B2	below the threshold

biological target: GRID2IP_1, A4D2P6; test: holdup assay; design: key: below the threshold = too weak to quantify, mostly under pKd 3.1 to 4; conditions: plain residues with an end cap or a label only (N-terminal biotin on a linker: ado-ado)
Sequence (A4D2P6 1-87): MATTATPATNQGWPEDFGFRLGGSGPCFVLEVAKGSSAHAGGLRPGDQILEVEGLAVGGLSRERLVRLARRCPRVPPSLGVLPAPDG

Binder	pKd
B1	below the threshold
B2	below the threshold

biological target: T4, GRIP1_5, Q9Y3R0; test: holdup assay; design: key: below the threshold = too weak to quantify, mostly under pKd 3.1 to 4; conditions: plain residues with an end cap or a label only (N-terminal biotin on a linker: ado-ado)
T4 sequence (Q9Y3R0 568-668, limits assumed, looked up): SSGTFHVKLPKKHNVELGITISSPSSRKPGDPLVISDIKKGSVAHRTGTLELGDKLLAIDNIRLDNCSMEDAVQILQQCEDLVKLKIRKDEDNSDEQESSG

Binder	pKd
B1	below the threshold
B2	below the threshold

biological target: GRIP2_3, Q9C0E4; test: holdup assay; design: key: below the threshold = too weak to quantify, mostly under pKd 3.1 to 4; conditions: plain residues with an end cap or a label only (N-terminal biotin on a linker: ado-ado)
Sequence (Q9C0E4 238-339): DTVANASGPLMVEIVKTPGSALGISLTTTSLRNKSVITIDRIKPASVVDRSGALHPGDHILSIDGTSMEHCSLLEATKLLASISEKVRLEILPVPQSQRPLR

Binder	pKd
B1	below the threshold
B2	below the threshold

biological target: Inadl_2, Q8NI35; test: holdup assay; design: key: below the threshold = too weak to quantify, mostly under pKd 3.1 to 4; conditions: plain residues with an end cap or a label only (N-terminal biotin on a linker: ado-ado)
Sequence (Q8NI35 238-335): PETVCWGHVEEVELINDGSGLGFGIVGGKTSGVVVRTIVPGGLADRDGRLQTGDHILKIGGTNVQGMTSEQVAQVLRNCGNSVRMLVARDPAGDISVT

Binder	pKd
B1	below the threshold
B2	below the threshold

biological target: T5, LIN7C, Q9NUP9; test: holdup assay; design: key: below the threshold = too weak to quantify, mostly under pKd 3.1 to 4; conditions: plain residues with an end cap or a label only (N-terminal biotin on a linker: ado-ado)
T5 sequence (Q9NUP9 88-185, limits assumed, looked up): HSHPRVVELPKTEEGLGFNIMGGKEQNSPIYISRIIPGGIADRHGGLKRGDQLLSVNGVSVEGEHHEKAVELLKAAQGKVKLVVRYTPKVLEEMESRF

Binder	pKd
B1	4.6
B2	below the threshold

biological target: LNX1_2, Q8TBB1; test: holdup assay; design: key: below the threshold = too weak to quantify, mostly under pKd 3.1 to 4; conditions: plain residues with an end cap or a label only (N-terminal biotin on a linker: ado-ado)
Sequence (Q8TBB1 371-470): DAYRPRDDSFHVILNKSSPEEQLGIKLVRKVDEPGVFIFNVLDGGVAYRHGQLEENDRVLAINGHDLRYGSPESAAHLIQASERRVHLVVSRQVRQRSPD

Binder	pKd
B1	3.78
B2	below the threshold

biological target: T6, LNX2_2, Q8N448; test: holdup assay; design: key: below the threshold = too weak to quantify, mostly under pKd 3.1 to 4; conditions: plain residues with an end cap or a label only (N-terminal biotin on a linker: ado-ado)
T6 sequence (Q8N448 334-432, limits assumed, looked up): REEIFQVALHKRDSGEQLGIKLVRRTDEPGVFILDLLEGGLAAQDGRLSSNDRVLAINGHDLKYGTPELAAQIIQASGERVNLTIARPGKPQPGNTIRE

Binder	pKd
B1	4.83
B2	below the threshold

biological target: MAGI3_2, Q5TCQ9; test: holdup assay; design: key: below the threshold = too weak to quantify, mostly under pKd 3.1 to 4; conditions: plain residues with an end cap or a label only (N-terminal biotin on a linker: ado-ado)
Sequence (Q5TCQ9 398-503): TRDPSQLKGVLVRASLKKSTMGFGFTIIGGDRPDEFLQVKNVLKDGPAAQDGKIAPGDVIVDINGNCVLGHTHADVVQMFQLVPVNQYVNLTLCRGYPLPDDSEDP

Binder	pKd
B1	5.11
B2	5.35

biological target: T7, MPDZ_5, O75970; test: holdup assay; design: key: below the threshold = too weak to quantify, mostly under pKd 3.1 to 4; conditions: plain residues with an end cap or a label only (N-terminal biotin on a linker: ado-ado)
T7 sequence (O75970 695-796, limits assumed, looked up): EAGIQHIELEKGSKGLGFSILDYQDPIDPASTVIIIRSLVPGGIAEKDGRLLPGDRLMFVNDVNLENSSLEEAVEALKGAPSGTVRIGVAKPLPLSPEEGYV

Binder	pKd
B1	below the threshold
B2	below the threshold

biological target: T8, NHERF3_3, Q5T2W1; test: holdup assay; design: key: below the threshold = too weak to quantify, mostly under pKd 3.1 to 4; conditions: plain residues with an end cap or a label only (N-terminal biotin on a linker: ado-ado)
T8 sequence (Q5T2W1 238-333, limits assumed, looked up): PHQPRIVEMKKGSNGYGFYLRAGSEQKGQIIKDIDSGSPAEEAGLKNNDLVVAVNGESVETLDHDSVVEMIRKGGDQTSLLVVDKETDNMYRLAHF

Binder	pKd
B1	below the threshold
B2	below the threshold

biological target: T9, NHERF3_4, Q5T2W1; test: holdup assay; design: key: below the threshold = too weak to quantify, mostly under pKd 3.1 to 4; conditions: plain residues with an end cap or a label only (N-terminal biotin on a linker: ado-ado)
T9 sequence (Q5T2W1 373-468, limits assumed, looked up): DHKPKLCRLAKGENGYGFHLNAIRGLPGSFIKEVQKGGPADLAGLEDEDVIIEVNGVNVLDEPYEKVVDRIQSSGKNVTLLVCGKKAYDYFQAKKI

Binder	pKd
B1	below the threshold
B2	below the threshold

biological target: PICK1, Q9NRD5; test: holdup assay; design: key: below the threshold = too weak to quantify, mostly under pKd 3.1 to 4; conditions: plain residues with an end cap or a label only (N-terminal biotin on a linker: ado-ado)
Sequence (Q9NRD5 17-115): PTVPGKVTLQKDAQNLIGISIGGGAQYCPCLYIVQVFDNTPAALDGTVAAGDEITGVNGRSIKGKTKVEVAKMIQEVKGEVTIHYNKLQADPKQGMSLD

Binder	pKd
B1	below the threshold
B2	below the threshold

biological target: SCRIB_2, Q14160; test: holdup assay; design: key: below the threshold = too weak to quantify, mostly under pKd 3.1 to 4; conditions: plain residues with an end cap or a label only (N-terminal biotin on a linker: ado-ado)
Sequence (Q14160 857-960): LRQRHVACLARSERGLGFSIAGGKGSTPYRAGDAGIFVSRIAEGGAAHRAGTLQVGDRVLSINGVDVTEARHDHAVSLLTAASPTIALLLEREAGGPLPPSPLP

Binder	pKd
B1	4.42
B2	below the threshold

biological target: T10, SHANK1, Q9Y566; test: holdup assay; design: key: below the threshold = too weak to quantify, mostly under pKd 3.1 to 4; conditions: plain residues with an end cap or a label only (N-terminal biotin on a linker: ado-ado)
T10 sequence (Q9Y566 658-767, limits assumed, looked up): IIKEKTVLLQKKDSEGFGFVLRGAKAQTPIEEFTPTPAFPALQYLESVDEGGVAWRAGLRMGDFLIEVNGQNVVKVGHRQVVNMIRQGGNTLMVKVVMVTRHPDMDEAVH

Binder	pKd
B1	below the threshold
B2	below the threshold

biological target: T11, SIPA1L2, Q9P2F8; test: holdup assay; design: key: below the threshold = too weak to quantify, mostly under pKd 3.1 to 4; conditions: plain residues with an end cap or a label only (N-terminal biotin on a linker: ado-ado)
T11 sequence (Q9P2F8 945-1036, limits assumed, looked up): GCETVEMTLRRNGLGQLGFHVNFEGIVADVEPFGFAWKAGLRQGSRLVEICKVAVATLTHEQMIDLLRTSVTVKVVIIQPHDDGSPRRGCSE

Binder	pKd
B1	below the threshold
B2	below the threshold

biological target: T12, SNTB1, Q13884; test: holdup assay; design: key: below the threshold = too weak to quantify, mostly under pKd 3.1 to 4; conditions: plain residues with an end cap or a label only (N-terminal biotin on a linker: ado-ado)
T12 sequence (Q13884 107-205, limits assumed, looked up): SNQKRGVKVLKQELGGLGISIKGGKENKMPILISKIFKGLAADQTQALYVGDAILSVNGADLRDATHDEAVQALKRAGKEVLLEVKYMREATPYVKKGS

Binder	pKd
B1	4.75
B2	below the threshold

biological target: TJP1_2, Q07157; test: holdup assay; design: key: below the threshold = too weak to quantify, mostly under pKd 3.1 to 4; conditions: plain residues with an end cap or a label only (N-terminal biotin on a linker: ado-ado)
Sequence (Q07157 181-274): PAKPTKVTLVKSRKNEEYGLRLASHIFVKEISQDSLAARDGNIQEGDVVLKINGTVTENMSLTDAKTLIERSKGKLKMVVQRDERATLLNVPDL

Binder	pKd
B1	below the threshold
B2	below the threshold
